Measurements: patent US20230302148A1, “PHARMACEUTICAL COMPOSITION COMPRISING LONG-ACTING CONJUGATE OF TRIPLE GLUCAGON/GLP-1/GIP RECEPTOR AGONIST” (HANMI PHARM. CO., LTD., priority 2020, published 2023)
Bridges are numbered along the chain shown (N, C = ends). Where no end group is shown, it is not given here. [ ]: non-standard residue; d: D form. The star is where a group is joined. Acetyl(2-(4-imidazolyl)) = O=C(Cc1c[nH]cn1)*; Aib = CC(C)(N)C(=O)O

T1: human GIP receptor (human, UniProt P48546 22-466)
T1 sequence (looked up): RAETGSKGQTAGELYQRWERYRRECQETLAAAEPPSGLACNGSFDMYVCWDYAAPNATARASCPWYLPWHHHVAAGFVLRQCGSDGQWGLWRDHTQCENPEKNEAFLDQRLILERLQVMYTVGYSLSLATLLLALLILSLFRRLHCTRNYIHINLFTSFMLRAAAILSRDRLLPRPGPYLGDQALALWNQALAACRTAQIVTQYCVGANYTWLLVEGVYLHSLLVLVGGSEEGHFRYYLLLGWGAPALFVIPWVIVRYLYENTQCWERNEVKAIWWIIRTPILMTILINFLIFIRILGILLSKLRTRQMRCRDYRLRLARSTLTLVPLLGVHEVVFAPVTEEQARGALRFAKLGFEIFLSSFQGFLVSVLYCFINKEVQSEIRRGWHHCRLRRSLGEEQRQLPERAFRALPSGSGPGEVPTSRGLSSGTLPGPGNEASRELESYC


How the values were obtained:
Assay in all cases: cell-based or functional assay
human GLP-1 receptor = human GLP-1 receptor (human, UniProt P43220 24-463)
human GCG receptor = human GCG receptor (human, UniProt P47871 26-477)
human GIP receptor = biological target: T1, human GIP receptor

human GCG receptor, sequence (P47871 26-477): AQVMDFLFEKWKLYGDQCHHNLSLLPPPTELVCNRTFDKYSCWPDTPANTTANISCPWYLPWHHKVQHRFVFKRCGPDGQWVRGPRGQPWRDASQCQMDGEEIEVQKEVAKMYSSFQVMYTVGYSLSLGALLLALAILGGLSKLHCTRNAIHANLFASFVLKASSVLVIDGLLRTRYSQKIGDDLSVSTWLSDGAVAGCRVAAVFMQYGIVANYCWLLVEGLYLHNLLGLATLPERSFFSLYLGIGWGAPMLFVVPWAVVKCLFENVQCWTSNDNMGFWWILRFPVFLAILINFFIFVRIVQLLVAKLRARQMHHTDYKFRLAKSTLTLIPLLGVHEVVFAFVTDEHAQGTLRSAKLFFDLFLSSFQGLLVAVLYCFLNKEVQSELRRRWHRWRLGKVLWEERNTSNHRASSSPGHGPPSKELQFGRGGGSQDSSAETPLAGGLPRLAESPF

| Binder | In vitro activity relative to native peptide (%) vs. GLP-1 (human GLP-1 receptor) [%] | In vitro activity relative to native peptide (%) vs. Glucagon (human GCG receptor) [%] | In vitro activity relative to native peptide (%) vs. GIP (human GIP receptor) [%] |
| --- | --- | --- | --- |
| Y[Aib]QGTFTSDYSKYLDECAAKDFVQWLLDHHPSSGQPPPS (bridge 16-20) [triple agonist of SEQ ID NO: 67] | 28.5 | 46.2 | 39.8 |
| [Acetyl(2-(4-imidazolyl))][Aib]QGTFTSDYSIAMDEIACKDFVNWLLNTK (bridge 16-20; not fully specified) [triple agonist of SEQ ID NO: 61] | 59.8 | < 0.1 | 2.8 |
| [Acetyl(2-(4-imidazolyl))][Aib]QGTFTSDYSKYLDECRAKEFVQWLLDHHPSSGQPPPS (bridge 16-20; not fully specified) [triple agonist of SEQ ID NO: 73] | 22.6 | 5.4 | 3 |
| [Acetyl(2-(4-imidazolyl))][Aib]QGTFTSDYSKCLDEKRAKEFVQWLLDHHPSSGQPPPS (bridge 16-20; not fully specified) [triple agonist of SEQ ID NO: 74] | 12.9 | 0.9 | 1 |
| [Acetyl(2-(4-imidazolyl))][Aib]QGTFTSDYSIAMDEKHCKDFVNWLLNTK (bridge 16-20; not fully specified) [triple agonist of SEQ ID NO: 60] | 106 | < 0.1 | 8.2 |
| Y[Aib]QGTFTSDYSKYLDEKRAKDFVQWLLDHHPSSGQPPPSC (bridge 16-20) [triple agonist of SEQ ID NO: 76] | 10.3 | 47.6 | 11.7 |
| Y[Aib]QGTFTSDYSKYLDECRAKDFVQWLLDHHPSSGQPPPS (bridge 16-20) [triple agonist of SEQ ID NO: 66] | 15.8 | 172 | 17.2 |
| H[Aib]EGTFTSDYSIAMDEIHQKDFVNWLLAQKC (bridge 16-20) [triple agonist of SEQ ID NO: 79] | 41.5 | 4.9 | 1.4 |
| Y[Aib]QGTFTSDYSKYLDECAAKEFVQWLLDHHPSSGQPPPS (bridge 16-20) [triple agonist of SEQ ID NO: 64] | 64.6 | 60.1 | 92.9 |
| Y[Aib]QGTFTSDCSKYLDERAAKDFVQWLLDHHPSSGQPPPS (bridge 16-20) [triple agonist of SEQ ID NO: 72] | 11.5 | 1 | 1.6 |
| Y[Aib]QGTFTSDYSKYLDEKAAKEFVQWLLDHHPSSGQPPPSC (bridge 16-20) [triple agonist of SEQ ID NO: 75] | 35.1 | 8.5 | 18 |
| Y[Aib]QGTFTSDYSKCLDEKAAKEFVQWLLDHHPSSGQPPPS (bridge 16-20) [triple agonist of SEQ ID NO: 68] | 27.9 | 8.8 | 107 |
| H[Aib]QGTFTSDVSKYLDGQAAQEFVAWLLKGC [triple agonist of SEQ ID NO: 8] | 14.2 | 0.1 | < 0.1 |
| H[Aib]EGTFTSDYSIAMDEIHQKDFVDWLLAEKC (bridge 16-20) [triple agonist of SEQ ID NO: 80] | 8.1 | 0 | 0.1 |
| [Acetyl(2-(4-imidazolyl))][Aib]QGTFTSDCSKYLDERAAQDFVQWLLDGGPSSGAPPPS [triple agonist of SEQ ID NO: 63] | 15.3 | < 0.1 | < 0.1 |
| Y[Aib]QGTFTSDYSKYLDEKAAKDFVQWLLDHHPSSGQPPPSC (bridge 16-20) [triple agonist of SEQ ID NO: 77] | 38.7 | 12.2 | 35.5 |
| Y[Aib]QGTFTSDYSKYLDERACKDFVQWLLDHHPSSGQPPPS (bridge 16-20) [triple agonist of SEQ ID NO: 71] | 90.1 | 12.7 | 94.7 |
| [Acetyl(2-(4-imidazolyl))][Aib]QGTFTSDKSKYLDERAAQDFVQWLLDGGPSSGAPPPS [triple agonist of SEQ ID NO: 62] | 5.2 | < 0.1 | < 0.1 |
| H[Aib]QGTFTSDVSKYLDGQAAKEFVAWLLKGC [triple agonist of SEQ ID NO: 7] | 13.7 | < 0.1 | < 0.1 |
| H[Aib]QGTFTSDYSKCLDEKRAKEFVQWLLDHHPSSGQPPPS (bridge 16-20) [triple agonist of SEQ ID NO: 65] | 95.4 | 25.2 | 11.6 |
| Y[Aib]QGTFTSDYSKCLDEKRAKDFVQWLLDHHPSSGQPPPS (bridge 16-20) [triple agonist of SEQ ID NO: 70] | 15.1 | 71.3 | 64.4 |
| H[Aib]QGTFTSDYSKYLDEKRQKEFVQWLLDTKC (bridge 16-20) [triple agonist of SEQ ID NO: 78] | 51 | 14 | 0.12 |
| Y[Aib]QGTFTSDYSKCLDERAAKEFVQWLLDHHPSSGQPPPS (bridge 16-20) [triple agonist of SEQ ID NO: 69] | 24.3 | 9.6 | 62.8 |
